Test results: US9023343B2, “Phosphorylation-inhibiting agent or dephosphorylating agent for PTEN” (Miyazaki Prefecture, priority 2009, dated 2015)

Assays:
[1] = biological target: T1, NDRG2 (Homo sapiens, UniProt Q9UN36); details: read-out: IC50 for enzymatic activity of NDRG2; concentration of NDRG2 protein 25 ng/ul
T1 sequence (Q9UN36 1-357 isoform Q9UN36-2): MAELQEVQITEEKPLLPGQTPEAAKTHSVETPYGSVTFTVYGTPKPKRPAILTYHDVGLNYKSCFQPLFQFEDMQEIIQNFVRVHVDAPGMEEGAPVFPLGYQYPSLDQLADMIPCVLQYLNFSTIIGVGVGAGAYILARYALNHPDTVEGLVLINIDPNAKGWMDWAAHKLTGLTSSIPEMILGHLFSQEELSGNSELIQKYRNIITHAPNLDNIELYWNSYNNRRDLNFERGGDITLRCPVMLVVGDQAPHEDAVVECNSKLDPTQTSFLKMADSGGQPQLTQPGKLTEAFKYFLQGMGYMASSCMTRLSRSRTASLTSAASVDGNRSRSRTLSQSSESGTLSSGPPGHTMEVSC
Procedure: The GST-NDRG2 protein (10 ng to 250 ng) was added to a reaction solution (pH 5.0) consisting of 100 mM sodium acetate, 0.8 mM DTT, and 10 mM pNPP, and the mixture was allowed to react at 30° C. for 10 minutes. After addition of 500 μl of 5 M NaGH, the reaction was stopped and OD 410 nm of the absorption wavelength for pNP (p-Nitrophenol) was measured. A standard curve was prepared at a concentration of 0.2 to 1.6 nmol of pNP, and an enzyme activity was determined by converting the absorbance into the concentration of pNP.

[2] = biological target: T2, PTEN (Homo sapiens, UniProt P60484); assay: In vitro dephosphorylation of FLAG-PTEN purified from ATL cell line Su9T-01, Western blot; assay type: biochemical; details: 10 ng/ml FLAG-PTEN, 30° C., 30 minutes; phosphorylation-specific anti-PTEN antibodies
T2 construct: made in house; host or cells: ATL cell line Su9T-01, transfected with PTEN/pCMV26; purified on anti-FLAG M2 gel
Procedure: ATL cell line Su9T-01 of 1×10^7 cells were transfected with 20 μg of PTEN/pCMV26 expression vector by electroporation. On day 2 after the transfection, the cells were collected and 500 μl of RIPA buffer solution was added to prepare a cell extract solution. […] The reaction solution was washed with PBS buffer solution, and eluted with 3×FLAG peptide (100 μg/ml).
A reaction solution composed of 25 ng of GST or GST-NDRG2 or one unit of bacterial alkaline phosphatase (BAP) (TAKARA) was reacted with a reaction solution consisting of 20 mM magnesium acetate, 300 μg/mL BSA, 30 μM EDTA, 0.03% β-mercaptoethanol, and 10 ng/ml FLAG-PTEN at 30° C. for 30 minutes. Phosphorylation state of PTEN was analyzed by the Western blot method using anti-PTEN antibodies specific to each phosphorylation.

[3] = pNPP (p-nitrophenyl phosphate) assay of phosphatase activity; assay type: biochemical; details: pH 5.0, 10 mM pNPP, 30° C., 10 minutes
Procedure: The GST-NDRG2 protein (10 ng to 250 ng) was added to a reaction solution (pH 5.0) consisting of 100 mM sodium acetate, 0.8 mM DTT, and 10 mM pNPP, and the mixture was allowed to react at 30° C. for 10 minutes. After addition of 500 μl of 5 M […], the reaction was stopped and OD 410 nm of the absorption wavelength for pNP (p-Nitrophenol) was measured. A standard curve was prepared at a concentration of 0.2 to 1.6 nmol of pNP, and an enzyme activity was determined by converting the absorbance into the concentration of pNP.

T2 sequence (P60484 whole entry): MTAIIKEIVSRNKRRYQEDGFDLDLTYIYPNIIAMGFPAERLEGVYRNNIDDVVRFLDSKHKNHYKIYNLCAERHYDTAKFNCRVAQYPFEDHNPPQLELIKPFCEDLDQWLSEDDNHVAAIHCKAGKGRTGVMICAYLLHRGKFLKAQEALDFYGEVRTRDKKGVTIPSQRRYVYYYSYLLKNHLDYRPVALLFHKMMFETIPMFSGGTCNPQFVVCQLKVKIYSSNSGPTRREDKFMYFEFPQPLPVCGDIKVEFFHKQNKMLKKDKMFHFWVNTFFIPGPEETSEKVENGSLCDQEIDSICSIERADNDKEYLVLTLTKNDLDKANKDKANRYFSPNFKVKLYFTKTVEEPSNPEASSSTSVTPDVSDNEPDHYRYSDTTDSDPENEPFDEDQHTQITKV

Compound: [F-].[Na+] [sodium fluoride]
- IC50 [1]: 383 nM

Compound: BAP: bacterial alkaline phosphatase (TAKARA), positive control
- dephosphorylation of PTEN [2]: dephosphorylation effects were recognized

Compound: GST: Glutathione S-Transferase protein, negative control
- dephosphorylation of PTEN [2]: not recognized
- production of pNP (phosphatase activity) [3]: not observed
